Experimental data from paper PMC7807878, “Development of an engineered peptide antagonist against periostin to overcome doxorubicin resistance in breast cancer” (BMC Cancer, 2021).

Columns and labels:
Assay type in all cases: cell-based
MCF-7 cells [1] = test: Drug sensitivity (MTS), MCF-7; conditions: doxorubicin treated MCF-7, rPN treatment experiment
Experimental: (§1) Determination the IC50 of BCA cells in response to chemotherapeutic drugs was analyzed by MTS assay. The experiment started from 5 × 10^3 of BCA cells in 100 μl medium that were seeded in 96-well plates for 24 h, then media was changed with different concentrations of new chemotherapeutic drugs [doxorubicin (S1208), paclitaxel (S1150), cisplatin (S1166), 5-fluorouracil (5-FU) (S1209) and gemcitabine (S1714) that were purchased from Selleck Chemicals, Houston, TX, USA] with or without rPN and anti-PN peptide for a further 48 h. After that, cell viability was determined by the MTS assay. Combination index (CI) was calculated by IC50 of combination of drug and PN or anti-PN peptide divided by IC50 of chemotherapeutic drug alone.
(§2) ANOVA test or Student’s t-test were applied for statistical analysis of the experiments. GraphPad Prism® version 7.04 software (GraphPad Software, San Diego, CA, USA) was used in calculation of IC50 values of chemotherapeutic drugs and PASW Statistics software version 18 (SPSS, IBM, Armonk, NY, USA) was used for other analysis. Dose-responses were compared by Holm-Sidak’s multiple comparison test. Mann-Whitney ranked-sum test was used for comparisons between normal and patient serum PN. Chi-square or Fisher’s exact test were used to determine the correlation between PN expression and clinical data in BCA patients. […]

[2] = test system: Akt phosphorylation (pAKT) in BCA cells; test: Western blot, Akt phosphorylation; conditions: parental BCA cells (MDA-MB-231, MCF-7), PN alone, duplicate experiments
Experimental: (§3) To determine the secreted PN amount in conditioned-media of each cell, 3 × 10^5 cells were seeded into 6-well plates with 3 ml of complete media. Cell media were removed the next day and washed with phosphate-buffered saline (PBS), and serum free media was added. Media was collected at 24 h, centrifuged and supernatant was taken and concentrated by Vivaspin®6 (VS0691, Sartorius, Goettingen, Germany). Protein concentration was determined by Bradford reagent (#5000006, Bio-Rad Laboratories, Hercules, CA, USA) and the amounts were adjusted to 5 μg per loading. To determine protein expression or phosphorylation in the cellular part, 2 × 10^6 cells were lysed with RIPA buffer (sc-24,948, Santa Cruz Biotechnology, Inc., Dallas, TX, USA). Each sample was separated by sodium dodecyl sulfate (SDS) polyacrylamide gel electrophoresis (PAGE) and transferred to PVDF membrane. […] HRP was detected by Pierce™ enhanced chemiluminescence (ECL) reagent (Thermo Fisher Scientific) and chemiluminescence signal was detected by G:BOX gel documentation system (Syngene, Cambridge, UK). Expression level of PN was determined by ImageJ version 1.52a software (National Institutes of Health, Bethesda, MD, USA).
(§4) Parental BCA cells were treated with PN and anti-PN peptides and the intracellular signaling pathway determined by western blot analysis. Akt phosphorylation and expression of survivin were detected. […]

MCF-7 cells [3] = test: Proliferation assay (MTS), MCF-7; conditions: rPN 100 ng/ml, 72 h, not statistically significant
Experimental: (§5) The proliferation assay of BCA cells was determined by the cell viability assay using CellTiter 96® Aqueous One Solution Cell Proliferation Assay (MTS assay) (Promega, Madison, WI, USA). Briefly, 3 × 10^3 cells in 100 μl medium were seeded in 96-well plates for 24 h. The day 1 baseline determination used the MTS assay following company instructions. For the experiment, cells were placed into new media containing 2% FBS with or without rPN (100 ng/ml) and anti-PN peptide (1 μM) and cells were cultured for a further 72 h. After treatment, cell viability was measured by the MTS assay. Proliferation rate was calculated as the folding of cell numbers increased from the baseline.

MDA-MB-231 cells [4] = test: Proliferation assay (MTS), MDA-MB-231; conditions: rPN 100 ng/ml, 72 h, P-value = 0.004
Experimental: as §5

MDA-MB-231 cells [5] = test: Wound healing migration assay, MDA-MB-231; conditions: rPN 100 ng/ml vs untreated control; P-value = 0.033
Experimental: (§6) The wound healing assay was performed to determine migration activity of the BCA cells after treatment under various conditions. Briefly, 5 × 10^4 cells of parental BCA cells or mock/PN-transfected cells were seeded in 24-well culture plates with their regular media for 24 h and media changed to 1% FBS with or without rPN (100 ng/ml) and anti-PN peptide (1 μM) and culture continued for 1 day until they reached approximately 95% confluency. Wounds were applied by scratching using 200 μl micropipette tip in a single straight line. The media with floating cells would be removed and refilled with the new experimental media. The culture process would be continued for a further 24 h and photos of the area would be taken at 8 h intervals. The migration area would be analyzed from the photos taken using TScratch version 1.0 software (https://github.com/cselab/TScratch) and migration activity calculated as μm^2/h. Independent duplicated experiments were performed.

[6] = test system: survivin expression in BCA cells; test: Western blot, survivin expression; conditions: parental BCA cells (MDA-MB-231, MCF-7), PN alone, duplicate experiments
Experimental: as §3, §4

MDA-MB-231 cells [7] = test: Drug sensitivity (MTS), MDA-MB-231; conditions: doxorubicin treated MDA-MB-231, rPN treatment experiment
Experimental: as §1, §2

MCF-7 cells [8] = test: Wound healing migration assay, MCF-7; conditions: rPN 100 ng/ml vs untreated control; P-value = 0.030
Experimental: as §6

B1: rPN: recombinant PN (periostin), BioVendor (protein)
chain: NNHYDKILAHSRIRGRDQGPNVCALQQILGTKKKYFSTCKNWYKKSICGQKTTVLYECCPGYMRMEGMKGCPAVLPIDHVYGTLGIVGATTTQRYSDASKLREEIEGKGSFTYFAPSNEAWDNLDSDIRRGLESNVNVELLNALHSHMINKRMLTKDLKNGMIIPSMYNNLGLFINHYPNGVVTVNCARIIHGNQIATNGVVHVIDRVLTQIGTSIQDFIEAEDDLSSFRAAAITSDILEALGRDGHFTLFAPTNEAFEKLPRGVLERIMGDKVASEALMKYHILNTLQCSESIMGGAVFETLEGNTIEIGCDGDSITVNGIKMVNKKDIVTNNGVIHLIDQVLIPDSAKQVIELAGKQQTTFTDLVAQLGLASALRPDGEYTLLAPVNNAFSDDTLSMDQRLLKLILQNHILKVKVGLNELYNGQILETIGGKQLRVFVYRTAVCIENSCMEKGSKQGRNGAIHIFREIIKPAEKSLHEKLKQDKRFSTFLSLLEAADLKELLTQPGDWTLFVPTNDAFKGMTSEEKEILIRDKNALQNIILYHLTPGVFIGKGFEPGVTNILKTTQGSKIFLKEVNDTLLVNELKSKESDIMTTNGVIHVVDKLLYPADTPVGNDQLLEILNKLIKYIQIKFVRGSTFKEIPVTVYTTKIITKVVEPKIKVIEGSLQPIIKTEGPTLTKVKIEGEPEFRLIKEGETITEVIHGEPIIKKYTKIIDGVPVEITEKETREERIITGPEIKYTRISTGGGETEETLKKLLQEEVTKVTKFIEGGDGHLFEDEEIKRLLQGDTPVRKLQANKKVQGSRRRLREGRSQ
Q: B1 was tested. Which “Combination index (CI) of PN” value (MCF-7 cells [1]) did it give?
A: The value was 1.39.

Q: What about the “Effect of PN on Akt phosphorylation” value [2] of the same molecule?
A: Its value is “could increase phosphorylation of Akt”.

Q: And the “Effect of rPN on proliferation” value (MCF-7 cells [3])?
A: The value was “could increase cell numbers”.

Q: And the “Effect of rPN on proliferation” value (MDA-MB-231 cells [4])?
A: Its value is “significantly showed induction of cell proliferation”.

Q: What about the “Effect of rPN on migration rate” value (MDA-MB-231 cells [5]) of the same molecule?
A: The value was “had a higher migration rate than the untreated control with statistical significance”.

Q: And the “Effect of PN on survivin expression” value [6]?
A: Its value is “could increase phosphorylation of Akt and survivin expression in all BCA cells”.

Q: And the “Combination index (CI) of PN” value (MDA-MB-231 cells [7])?
A: Its value is 2.36.

Q: And the “Effect of rPN on migration rate” value (MCF-7 cells [8])?
A: The value was “had a higher migration rate than the untreated control with statistical significance”.
